The chains are these.
T1: HMG2 (Bos taurus, UniProt P40673)
T1 construct: from tissue; host or cells: calf thymus (as read from the sentence)
T1 sequence (P40673 1-209): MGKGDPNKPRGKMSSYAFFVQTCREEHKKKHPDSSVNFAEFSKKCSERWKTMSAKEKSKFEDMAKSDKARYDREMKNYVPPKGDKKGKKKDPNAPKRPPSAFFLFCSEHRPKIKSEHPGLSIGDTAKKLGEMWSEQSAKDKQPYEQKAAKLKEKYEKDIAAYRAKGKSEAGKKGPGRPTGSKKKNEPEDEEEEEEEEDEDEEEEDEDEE

B1: S16: human anti-HMG1 antibody, ATCC PTA-6259; VL/VH aa SEQ ID NO: 13/15 (antibody, listed as Homo sapiens, V domains shown)
VH: EVQLLESGGGLVQPGGSLRLSCAASGFTFSWYSMLWVRQAPGKGLEWVSYISPSGGFTNYADSVKGRFTISRDNSKNTLYLQMNSLRAEDTAVYYCARWDYNSGWYYDHWGQGTLVTVSS
VL: AQDIQMTQSPDTLSLSPGERATLSCRASQSVNSRNLAWYQQKPGQAPRLLIYGASTRATGIPDRFSGSVSGTEFTLTISSLQPDDFATYYCQQYNSYFTFGQGTKLEIK
B2: G9: human anti-HMG1 antibody; VL/VH aa SEQ ID NO: 34/36 (antibody, listed as Homo sapiens, V domains shown)
VH: EVQLLESGGGLVQPGGSLRLSCAASGFTFSSYDMFWVRQAPGKGLEWVSRISPSGGYTYYADSVKGRFTISRDNSKNTLYLQMNSLRAEDTAVYYCARLRYFDSRGYAFDIWGQGTMVTVSS
VL: AQDIQMTQSPGTLSLSPGERATLSCRASQSVRSSYLAWYQQKPGQAPRLLIYGASTRATGIPDRFSGSGSGTDFTLTISRLEPEDFAVYYCQQYGTSRWTFGQGTKVEIK
B3: S10: human anti-HMG1 antibody; VL/VH aa SEQ ID NO: 58/60 (antibody, listed as Homo sapiens, V domains shown)
VH: EVQLLESGGGLVQPGGSLRLSCAASGFTFSWYDMWWVRQAPGKGLEWVSWIVPSGGITAYADSVKGRFTISRDNSKNTLYLQMNSLRAEDTATYYCARGNYGPSPFDYWGQGTLVTVSS
VL: AQDIQMTQSPGTLSLSPGERATLSCRATQSVRKNFLAWYQQKPGQAPRLLIYDASSRATGIPDRFSGSGSGTDFTLTISRLEPEDFAVYYCQQYGNSPIIFGQGTRLEIK
B4: S17: human anti-HMG1 antibody; VL/VH aa SEQ ID NO: 70/72 (antibody, listed as Homo sapiens, V domains shown)
VH: EVQLLESGGGLVQPGGSLRLSCAASGFTFSYYDMHWVRQAPGKGLEWVSRISPSGGYTWYADSVKGRFTISRDNSKNTLYLQMNSLRAEDTAVYYCTRGRYTSGWHEYFDPWGQGTLVTVSS
VL: AQDIQMTQSPSSLSASVGDRVTITCRASQSIGTYLNWYQQKPGTAPKVLIYAASSLQSGVPSRFSGSGSGTDFTLTISSLQPEDFSTYYCQQSYNTPRTFGQGTKLEIK
B5: E11: human anti-HMG1 antibody, recognizes HMG1 A-Box; VL/VH aa SEQ ID NO: 24/26 (antibody, listed as Homo sapiens, V domains shown)
VH: EVQLLESGGGLVQPGGSLRLSCAASGFTFSRYQMNWVRQAPGKGLEWVSSISPSGGHTHYADSVKGRFTISRDNSKNTLYLQMNSLRAEDTAVYYCAKDGRQGKISTVDHWGQGTLVTVSS
VL: AQDIQMTQSPGTLSLSPGERATLSCRASQSVRSNFLAWYQQKPGQAPRLLIYGASRRASGIPDRFSGSGFGADFTLSISRLEPEDFAVYYCQQYGSSPNTFGQGSRVEIK
B6: S12: human anti-HMG1 antibody; VL/VH aa SEQ ID NO: 62/64 (antibody, listed as Homo sapiens, V domains shown)
VH: EVQLLESGGGLVQPGGSLRLSCAASGFTFSKYIMHWVRQAPGKGLEWVSGIVPSGGLTEYADSVKGRFTISRDNSKNTLYLQMNSLRAEDTATYYCAKEIFGQFDYWGQGTLVTVSS
VL: AQSALTQPPSVSAAPRQRVTISCSGSTSNIGNNAVTWYQYFPGKAPKLLIYSDNQRPSGVPDRFSGSKSGTSASLAITGLQAEDEADYYCQSYDRGLSVVFGGGTKLTVL
B7: G20: human anti-HMG1 antibody; VL/VH aa SEQ ID NO: 46/48 (antibody, listed as Homo sapiens, V domains shown)
VH: EVQLLESGGGLVQPGGSLRLSCAASGFTFSWYDMFWVRQAPGKGLEWVSWISPSGGYTKYADSVKGRFTISRDNSKNTLYLQMNSLRAEDTAMYYCARSGLDYYDSSGYLDAFDIWGQGTMVTVSS
VL: AQDIQMTQSPSSVSASVGDRVTITCRASQDVSIWLAWYQQKPGKAPKLLIFGASRLQSGVPSRFSGSRSGADFTLTIDSVQPEDFASYYCQQADSFPLTFGGGTKVEIK

“Also recorded” adds a separate entry of the source.

Test system in one data set: not listed separately
Nature of the data set: Differential scanning calorimetry. The format is physicochemical. Also noted: unit: °C. The conditions noted are these: in °C (unit assumed). As for the experimental part:
Differential Scanning Calorimetry: Thermal melting temperatures (Tm) were measured with a VP-DSC (MicroCal, LLC) using a scan rate of 1.0° C./min and a temperature range of 25-120° C. A filter period of 8 seconds was used along with a 5 minute pre-scan thermostating. Samples were prepared by dialysis into 25 mM Histidine-HCl, pH 6 using Pierce dialysis cups (3.5 kD). Average Mab concentrations were 50 μg/mL as determined by A280. Melting temperatures were determined following manufacturer procedures using Origin software supplied with the system. Briefly, multiple baselines were run with buffer in both the sample and reference cell to establish thermal equilibrium. After the baseline was subtracted from the sample thermogram, the data were concentration normalized and fitted using the deconvolution function.
For the molecule B1, the Tm was 71.4.

For B2, the Tm amounted to 77.9.

Regarding B3, the Tm is given as 75.3.

Take B4: the Tm was 90.0.

Turning to B5, the Tm is given as 66.3.

With B6, the Tm stood at 66.9.

Regarding B7, the Tm came out at 71.2.

Another data set relates to HMG1 (recombinant, native; immobilized, soluble). The data set can be described thus: Direct and sandwich (capture) ELISA comparing forms of HMG1. The conditions noted are these: capture ELISA. The format is binding. Here is the method: Direct ELISA (immobilized HMG1): Individual wells of a 96-well immunoplate (EIA/RIA plate, High binding, Costar) were coated with HMGB-1 at 5 μg/ml in PBS at 4° C. overnight. The plate was then blocked with 4% milk powder dissolved in PBS at 37° C. for 1 hour. The blocking solution was removed and replaced with human anti-HMG1 antibodies at various concentrations (see FIG. 4A). The plate was then washed (ELX-405 Plate washer, BIO-TEK) and secondary antibody (anti-human IgG-HRP, PIERCE) was added at a final concentration of 1:125,000 at 37° C. for 1 hour. HRP activity was detected with Sureblue HRP substrate (KPL). Plates were read at 450 nm using a Kinetic Microplate Reader (Molecular Devices).
Sandwich ELISA (soluble HMG1): Immunoplates (EIA/RIA plate, High binding, Costar) were coated with anti human IgG Fc at 10 μg/ml in PBS (pH 7.2) and incubated at 4° C. overnight. The coating reagent was removed and the plates were rinsed briefly with PBS. The plates were then blocked with 4% milk for 1 hour at 37° C. and rinsed with PBS. The anti-HMG1 antibodies were diluted in 4% milk. For serial dilutions, the antibodies were used at a starting concentration of 20 μg/ml. The diluted anti-HMG1 antibodies were then added into plate and incubated for 1 hr at 37° C. The plate was then washed 10 times with PBST (PBS/0.1% tween 20) and incubate with antigen (HMGB1, 2 μg/ml; or 0.7 μg/ml for native HMGB1) in 4% milk and incubated at 37° C. for 1 h. The plate was then wash 10 times and incubated with mouse anti-HMGB1, 1 μg/ml in 4% milk at 37° C. for 1 h. The plate was washed 10 times and incubated with anti-mouse IgG-HRP at 1:1000 at 37° C. for 1 h. The plate was then washed and developed. HRP activity was detected with Sureblue HRP substrate (KPL). Plates were read at 450 nm using a Kinetic Microplate Reader (Molecular Devices).
With B1, the “binding to recombinant HMG1 versus native HMG1” value was “binds both recombinant and native HMG1; also recorded: binding all forms of HMG1; also recorded: bind both forms of HMG1”.

Consider B3, for which the “binding to recombinant HMG1 versus native HMG1” value was “better binding to rHMG1; also recorded: discriminating between recombinant and the various native forms; also recorded: bind better to recombinant HMG1 than to native nuclear HMG1”.

The data set is the same for the next values; noted with them: two ELISA formats, rHMG1.
Consider B1, for which the “binding to immobilized versus soluble HMG1” value was “bound slightly better to immobilized rHMG1”.

Consider B2, for which the “binding to immobilized versus soluble HMG1” value was “little difference in binding to immobilized or soluble HMG1”.

With B3, the “binding to immobilized versus soluble HMG1” value is recorded as “bound slightly better to immobilized rHMG1”.

For the molecule B4, the “binding to immobilized versus soluble HMG1” value is “to a lesser extent S17 have a higher affinity for soluble HMG1”.

B5: the “binding to immobilized versus soluble HMG1” value is “bind better to soluble rHMG1; also recorded: higher affinity for soluble HMG1”.

Take B6: the “binding to immobilized versus soluble HMG1” value is “bound slightly better to immobilized rHMG1”.

In the case of B7, the “binding to immobilized versus soluble HMG1” value is “bind better to soluble rHMG1”.

A further data set has as its target T1, HMG2. Nature of the data set: Binding to HMG1 vs. HMG2 ELISA. More on the design: species or system calf. The conditions noted are these: immobilized antigen. Here is the method: Binding to HMG1 vs. HMG2: Ultra high-binding ELISA plates (ThermoLab systems, #3855) were coated with either 5 ug/mL of Calf thymus HMGB1 or HMBG2 diluted in 10 mM Phosphate buffered saline (PBS), pH 7.2 and incubate overnight at 4 degrees. The plates were washed twice with Ca and Mg free PBS and 100 microliters of anti-HMGB1 antibody diluted in 10 mM PBS, pH 7.2+1% bovine serum albumin (BSA) to a final concentration of 10 ug/mL was added to each well and the plates were incubated 1 hour at room temperature. The wells were washed three times with 100 μl of PBS, pH 7.2. HRP labeled goat-anti-human IgG Kappa-chain (KPL, #14-10-10) and goat-anti-human IgG Lambda-chain (KPL, #14-10-11) were diluted in 10 mM PBS+1% BSA 1:1000 and 100 μl were added to each well and incubated for 1 hour at room temperature. The wells were then washed three times with 100 μl of PBS, pH 7.2. OPD substrate (Pierce chemical company, #34006) was prepared following the manufacturers instructions and 100 μl of prepared substrate was added to each well and the plates incubated at room temperature in the dark for 20-30 minutes. The reaction was stopped with the addition of 100 μl of 2M H2SO4, and the plates read on a plate reader at a wavelength of 490 nm.
On to B1, for which the “relative binding to HMG1 and HMG2” value was “some binding to both HMG1 and HMG2”.

As for B2, the “relative binding to HMG1 and HMG2” value is “specific for HMG1”.

For the molecule B3, the “relative binding to HMG1 and HMG2” value is given as “specific for HMG1”.

As for B4, the “relative binding to HMG1 and HMG2” value is listed as “specific for HMG1”.

With B5, the “relative binding to HMG1 and HMG2” value is given as “some binding to HMG2; also recorded: bind better to HMG2 than to HMG1; also recorded: higher binding affinity for HMG2”.

B6: the “relative binding to HMG1 and HMG2” value is “some binding to both HMG1 and HMG2”.

For the molecule B7, the “relative binding to HMG1 and HMG2” value is listed as “specific for HMG1”.

Test system in another data set: not listed separately
The data set can be described thus: Isoelectric focusing gel electrophoresis. The format is physicochemical.
Conditions: not given
As for the experimental part:
Isoelectric Focusing Gel Electrophoresis: Isoelectric points were determined using a Pharmacia Biotech Multiphor 2 electrophoresis system with a multi temp 3 refrigerated bath recirculation unit and an EPS 3501 XL power supply. Pre-cast ampholine gels (Amersham Biosciences, pI range 2.5-10) were loaded with 5 μg of protein. Broad range pI marker standards (Amersham, pI range 3-10, 8 μL) were used to determine relative pI for the Mabs. Electrophoresis was performed at 1500 V, 50 mA for 105 minutes. The gel was fixed using a Sigma fixing solution (5×) diluted with purified water to 1×. Staining was performed overnight at room temperature using Simply Blue stain (Invitrogen). Destaining was carried out with a solution that consisted of 25% ethanol, 8% acetic acid and 67% purified water. Isoelectric points were determined using a Bio-Rad Densitometer relative to calibration curves of the standards.
The molecule B1 returned a PI of 8.11.

As for B2, the PI turned out to be 9.01.

The molecule B3 yielded a PI of 8.76.

Turning to B4, the PI was 8.7.

In turn, B5 showed a PI of 8.92.

B6 displayed a PI of 8.73.

For B7, the PI is on record as 7.8.

The record behind these values is patent US20080311122A1, “Antagonists of Hmgb1 and/or Rage and Methods of Use Thereof” (Medimmune, LLC, priority 2005, published 2008).
